Experiments:
[1] = target: RV3 F ectodomain without GCN4, Q89M + Q222I + L168P + S470V (human respirovirus 3 (HPIV3/Seattle/USA/10Q7/2010)); assay: SEC
[2] = target: RV3 F ectodomain without GCN4, Q89M + Q222I + L168P + S470V + S477V (human respirovirus 3 (HPIV3/Seattle/USA/10Q7/2010)); assay: SEC
[3] = target: RV3 F ectodomain without GCN4, Q89M + Q222I + L168P + S477V (human respirovirus 3 (HPIV3/Seattle/USA/10Q7/2010)); assay: SEC
[4] = target: RV3 F ectodomain without GCN4, five head-stabilizing substitutions (S41P, N167P, Q89M, Q222I, L168P) (human respirovirus 3 (HPIV3/Seattle/USA/10Q7/2010)); assay: SEC-MALS; analytical SEC-MALS of F variants in supernatant
[5] = target: RV3 F ectodomain without GCN4, five head-stabilizing substitutions plus S470V and S477V (human respirovirus 3 (HPIV3/Seattle/USA/10Q7/2010)); assay: as above
[6] = target: stabilized RV1 preF (A44P + E170P + Q171P + S473V + A480V) (human respirovirus 1) (UniProt P12605); assay: SEC
[7] = target: stabilized RV1 preF (A44P + E170P + Q171P + S473V + A480V) (human respirovirus 1) (UniProt P12605); assay: SEC-MALS
[8] = target: stabilized RV1 preF with K339P (A44P + E170P + Q171P + K339P + S473V + A480V) (human respirovirus 1) (UniProt P12605); assay: SEC

## RV3 F ectodomain without GCN4, Q89M + Q222I + L168P + S470V (domain or fragment)
[1]
  stoichiometry N: 3

## RV3 F ectodomain without GCN4, Q89M + Q222I + L168P + S470V + S477V (domain or fragment)
[2]
  stoichiometry N: 3

## RV3 F ectodomain without GCN4, Q89M + Q222I + L168P + S477V (domain or fragment)
[3]
  stoichiometry N: 3

## RV3 F ectodomain without GCN4, five head-stabilizing substitutions (S41P, N167P, Q89M, Q222I, L168P) (domain or fragment)
[4]
  stoichiometry N: 3

## RV3 F ectodomain without GCN4, five head-stabilizing substitutions plus S470V and S477V (domain or fragment)
[5]
  stoichiometry N: 3

## stabilized RV1 preF (A44P + E170P + Q171P + S473V + A480V) (from UniProt P12605 22-496) (domain or fragment)
[6]
  stoichiometry N: 3
[7]
  stoichiometry N: 3

## stabilized RV1 preF with K339P (A44P + E170P + Q171P + K339P + S473V + A480V) (from UniProt P12605 22-496) (domain or fragment)
[8]
  stoichiometry N: 3

Source: paper PMC11143371
